Results: patent US20060286611A1, “Antibodies against biotinylated histones and related proteins and assays related thereto” (Board of Regents of University of Nebraska, priority 2005, published 2006)
Non-standard residues stand in square brackets, D forms with d. No end group written: not given here. *: point of attachment. Me2 = dimethyl-lysine (dimethyl-epsilon-NH2-L-lysine); For = O=C*

target: T1, biotinidase (Homo sapiens, UniProt P43251); assay: Enzymatic biotinylation of synthetic histone H4 peptides by biotinidase; assay type: biochemical; settings: human plasma as source of biotinidase, biocytin, 37° C., 45 min
T1 construct: 60 μL of human plasma; from tissue; host or cells: human plasma
T1 sequence (P43251 22-523): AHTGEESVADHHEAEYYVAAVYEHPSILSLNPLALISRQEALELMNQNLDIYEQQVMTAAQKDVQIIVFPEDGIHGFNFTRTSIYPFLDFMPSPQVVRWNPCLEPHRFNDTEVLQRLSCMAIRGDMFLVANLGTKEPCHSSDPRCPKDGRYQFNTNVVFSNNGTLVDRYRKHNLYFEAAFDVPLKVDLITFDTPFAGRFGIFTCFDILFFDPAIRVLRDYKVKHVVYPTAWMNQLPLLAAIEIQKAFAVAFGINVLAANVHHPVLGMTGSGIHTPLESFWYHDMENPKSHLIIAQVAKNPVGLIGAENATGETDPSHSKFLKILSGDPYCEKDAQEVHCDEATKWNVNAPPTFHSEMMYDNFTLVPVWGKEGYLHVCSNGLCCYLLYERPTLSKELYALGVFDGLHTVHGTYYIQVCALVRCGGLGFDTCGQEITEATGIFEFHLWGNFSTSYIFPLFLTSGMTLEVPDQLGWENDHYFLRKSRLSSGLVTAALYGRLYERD
Text: It has been proposed that the following catalytic sequence leads to biotinylation in histones (Hymes et al., 1995; Hyme and Wolf, 1999). First, biocytin is cleaved by biotinidase to form an intermediate, cysteine-bound biotin. Second, the biotinyl moiety from the cysteine residue is transferred to the ε-amino group of lysines in histones. In the present study, synthetic peptides were biotinylated enzymatically using human plasma (as source of biotinidase) and biocytin (as source of biotin) as described previously (Hymes et al., 1995). Peptide concentrations in stock solutions were adjusted to 50 mg/L; 20 μL of peptide solution was mixed with 1.88 mL of 50 mmol/L Tris (pH 8.0), 40 μL of 0.75 mmol/L biocytin and 60 μL of human plasma. Samples were incubated […] at 37° C. for 45 min and stored at −70° C. unless stated otherwise.
After enzymatic biotinylation, peptides were electrophoresed using 16% tricine polyacrylamide gels according to the manufacturer's instructions (Invitrogen, Carlsbad, Calif.). Peptides were electroblotted onto polyvinylidene fluoride membranes (Millipore, Bedford, Mass.), which were blocked with 50 mL of 30 g/L BSA. Peptide-bound biotin was probed with streptavidin peroxidase (Stanley et al., 2001).

Q: “18: histone H4 positions 6-15, glutamine in position 12 (Ac-GGKGLGQGGA) [Peptide 18]” was tested. Which “enzymatic biotinylation by biotinidase, peptide-bound biotin probed with streptavidin peroxidase” value did it give?
A: decreased compared to the native peptide

Q: “19: histone H4 positions 6-15, glutamine in positions 8 and 12 (Ac-GGQGLGQGGA) [Peptide 19]” was tested. Which “enzymatic biotinylation by biotinidase, peptide-bound biotin probed with streptavidin peroxidase” value did it give?
A: no enzymatic biotinylation was detectable

Q: With “2: histone H4 positions 6-15, alanine in position 8 (Ac-GGAGLGKGGA) [Peptide 2]” as the compound, how does the “enzymatic biotinylation by biotinidase, peptide-bound biotin probed with streptavidin peroxidase” value read?
A: decreased substantially

Q: With “4: histone H4 positions 6-15, alanine in positions 8 and 12 (Ac-GGAGLGAGGA) [Peptide 4]” as the compound, how does the “enzymatic biotinylation by biotinidase, peptide-bound biotin probed with streptavidin peroxidase” value read?
A: did not undergo biotinylation

Q: “12: histone H4 positions 6-15, arginine in position 8 (Ac-GGRGLGKGGA) [Peptide 12]” was tested. Which “enzymatic biotinylation by biotinidase, peptide-bound biotin probed with streptavidin peroxidase” value did it give?
A: decreased substantially

Q: “3: histone H4 positions 6-15, alanine in position 12 (Ac-GGKGLGAGGA) [Peptide 3]” was tested. Which “enzymatic biotinylation by biotinidase, peptide-bound biotin probed with streptavidin peroxidase” value did it give?
A: decreased substantially

Q: How did the “enzymatic biotinylation by biotinidase, peptide-bound biotin probed with streptavidin peroxidase” value turn out when “6: histone H4 positions 6-15, Ac-K in position 12 (Ac-GGKGLGK(Ac)GGA) [Peptide 6]” was run?
A: decreased biotinylation of the peptide

Q: How did the “enzymatic biotinylation by biotinidase, peptide-bound biotin probed with streptavidin peroxidase” value turn out when “14: histone H4 positions 6-15, arginine in positions 8 and 12 (Ac-GGRGLGRGGA) [Peptide 14]” was run?
A: not detected

Q: How did the “enzymatic biotinylation by biotinidase, peptide-bound biotin probed with streptavidin peroxidase” value turn out when “7: histone H4 positions 6-15, Dme-K in position 8 (Ac-GGK(Me2)GLGKGGA) [Peptide 7]” was run?
A: decreased substantially

Q: Which “enzymatic biotinylation by biotinidase, peptide-bound biotin probed with streptavidin peroxidase” value does the source give for “5: histone H4 positions 6-15, Ac-K in position 8 (Ac-GGK(Ac)GLGKGGA) [Peptide 5]” here?
A: barely detectable

Q: With “16: histone H4 positions 6-15, glutamate in position 12 [Peptide 16]” as the compound, how does the “enzymatic biotinylation by biotinidase, peptide-bound biotin probed with streptavidin peroxidase” value read?
A: not detectable

Q: “8: histone H4 positions 6-15, Dme-K in position 12 (Ac-GGKGLGK(Me2)GGA) [Peptide 8]” was tested. Which “enzymatic biotinylation by biotinidase, peptide-bound biotin probed with streptavidin peroxidase” value did it give?
A: decreased substantially

Q: How did the “enzymatic biotinylation by biotinidase, peptide-bound biotin probed with streptavidin peroxidase” value turn out when “20: histone H4 positions 6-15, D-lysine in position 12 (Ac-GGKGLG[dK]GGA) [Peptide 20]” was run?
A: decreased only moderately

Q: With “GGKGLGKGGA (Ac-GGKGLGKGGA) [Peptide 1, amino acids 6 through 15 in histone H4, native control]” as the compound, how does the “enzymatic biotinylation by biotinidase, peptide-bound biotin probed with streptavidin peroxidase” value read?
A: efficiently biotinylated

Q: With “13: histone H4 positions 6-15, arginine in position 12 (Ac-GGKGLGRGGA) [Peptide 13]” as the compound, how does the “enzymatic biotinylation by biotinidase, peptide-bound biotin probed with streptavidin peroxidase” value read?
A: decreased moderately

Q: “15: histone H4 positions 6-15, glutamate in position 8 [Peptide 15]” was tested. Which “enzymatic biotinylation by biotinidase, peptide-bound biotin probed with streptavidin peroxidase” value did it give?
A: not detectable

Q: With “9: histone H4 positions 6-15, For-K in position 12 (Ac-GGKGLGK(For)GGA) [Peptide 9]” as the compound, how does the “enzymatic biotinylation by biotinidase, peptide-bound biotin probed with streptavidin peroxidase” value read?
A: decreased compared to the native peptide

Q: How did the “enzymatic biotinylation by biotinidase, peptide-bound biotin probed with streptavidin peroxidase” value turn out when “17: histone H4 positions 6-15, glutamine in position 8 (Ac-GGQGLGKGGA) [Peptide 17]” was run?
A: decreased compared to the native peptide

same assay, conditions: incubated with plasma and biocytin for 0 to 60 min

Q: With “SGRGKGGKGLGKGGAKRHR [SEQ ID NO:7, N-terminal 19 amino acids of histone H4]” as the compound, how does the “time at which abundance of biotinylated peptide reached a plateau” value read?
A: 20 to 60 min

target: T1, biotinidase; assay: Enzymatic biotinylation of synthetic histone H2A and H2A.X peptides by biotinidase; assay type: biochemical; settings: human plasma as source of biotinidase, 75 μmol/L biocytin, pH 8.0, 37° C., up to 45 minutes
Text: In Examples described above, the inventors developed a procedure to identify amino acid residues in histones that are targets for biotinylation. […] Amino acid substitutions (e.g., lysine-to-alanine substitutions) in synthetic peptides are used to corroborate identification of biotinylation sites. In addition, amino acid modifications (e.g., acetylation of lysines) in peptides can be used to investigate the cross-talk between biotinylation of histones and other known modifications of histones.
Peptides from both the N- and C-terminal regions of histone H2A and H2A.X were included in the analysis of biotinylation sites. […] Reactions were quenched by adding an equal volume of Tricine gel loading buffer (Invitrogen, Carlsbad, Calif.).

Q: With `NC(=O)NCCC[C@H](N)C(=O)O` [citrulline] as the compound, how does the “enzymatic biotinylation by biotinidase, peptide-bound biotin probed with streptavidin peroxidase” value read?
A: good targets for biotinylation

target: T1, biotinidase; assay: Enzymatic biotinylation of synthetic histone H3 peptides by biotinidase; assay type: biochemical; settings: biotinidase and biocytin, 45 min

Q: For `NC(=O)NCCC[C@H](N)C(=O)O` [citrulline], which “enzymatic biotinylation by biotinidase, peptide-bound biotin probed with streptavidin-peroxidase” value is on record?
A: relatively poor target for biotinylation

Q: Which “enzymatic biotinylation by biotinidase, peptide-bound biotin probed with streptavidin-peroxidase” value does the source give for “K9,14A9-16: histone H3 amino acids 9 to 16, K9 and K14 substituted with alanine (ASTGGAAP)” here?
A: no binding of biotin was detectable

Q: Which “enzymatic biotinylation by biotinidase, peptide-bound biotin probed with streptavidin-peroxidase” value does the source give for “TARASTGG [Peptide K9A6-13, histone H3 6-13, K9 substituted with alanine]” here?
A: no biotinylation was observed

Q: “N9-16: histone H3 amino acids 9-16, including K9 and K14 (KSTGGKAP; UniProt P68431 10-17, looked up, fragment) [Peptide N9-16]” was tested. Which “enzymatic biotinylation by biotinidase, peptide-bound biotin probed with streptavidin-peroxidase” value did it give?
A: relatively poor targets for biotinylation

system: histone H1; assay: Proteolytic digestion of histone H1; assay type: biochemical; settings: 20 mM
Procedure: Here the inventors determined whether biotin release is mediated by proteolytic digestion of histones. One milligram of histone H1 was dissolved in 100 μl of 20 mM sodium acetate [pH 4.5]. 0.4 microliters of histone solution was mixed with 7.1 μl of nuclear extract containing 20 μg of protein; samples were incubated at 37° C. for 20 min. The following controls were tested: histones incubated without nuclear extract, and histones incubated with 2.5 microliter trypsin [with or without 20 mM of the trypsin inhibitor, phenylmethylsulphonylfluoride (PMSF)]. Reactions were terminated by heating the samples with equal volume of loading buffer at 72° C. for 10 min. Proteins were resolved using 4-12% Bis-Tris gels (Invitrogen, Carlsbad, Calif.) as described (Stanley et al., 2001) and were visualized using coomassie blue.

Q: For `O=S(=O)(F)Cc1ccccc1` [PMSF, phenylmethylsulphonylfluoride], which “degradation of histone H1 by trypsin in the presence of the inhibitor” value is on record?
A: prevented

same assay, conditions: 37° C. for 20 min

Q: Which “degradation of histone H1 by gel electrophoresis” value does the source give for trypsin here?
A: degraded completely
